Experimental data: the supplement of paper PMC12764529
± gives the half width of the 95% confidence interval.

What was measured:
[1] = folding stability dG unfold from trypsin proteolysis; higher = more stable
Procedure, shortened: (§1)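 How resistant each design was to proteolysis was captured as K50, inferred by Bayesian fitting of sequencing counts. Unfolding free energy was then derived relative to a sequence-predicted unfolded-state K50 and a shared folded-state K50, per protease or combined. Digestion used trypsin and chymotrypsin at 11 threefold-diluted concentrations plus a no-protease condition, on mini-proteins under 80 residues without cysteine in a PA-tagged cDNA display construct. Designs were kept only when AlphaFold2 dimer inter-PAE was above 15.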

[2] = folding stability dG unfold (combined trypsin and chymotrypsin); higher = more stable
Procedure, shortened: as §1

[3] = folding stability dG unfold from chymotrypsin proteolysis; higher = more stable
Procedure, shortened: as §1

Sequence	folding stability dG unfold [1] [kcal/mol]	folding stability dG unfold [2] [kcal/mol]	folding stability dG unfold [3] [kcal/mol]
SAGGSAGGSAGDDGDKKPEVKVKVKIEPTIIPSPNGELMLMWTLEIEYPGNGEKREFTFMSAGGSAGGSAGG [r17_59_TrROS]	1.33 ± 0.071	1.58 ± 0.17	1.92 ± 0.13
SAGGSAGGSAGDENEKPKPKMQMKMIQIKFPPEDLPELAEEFGIDSVHIMPNGSLFIMVYSAGGSAGGSAGG [r11_64_TrROS]	1.07 ± 0.11	1.36 ± 0.18	1.48 ± 0.1
SAGGSAGGSAGDEWITIWFLFPSPEQAKDIADPLASNGLNIDVETHRMPDGNYWVNITIPSAGGSAGGSAGG [r11_677_TrROS]	2.21 ± 0.092	2.9 ± 0.11	3.34 ± 0.089
SAGGSAGGSAGDGMIEVKVEFERLFFDENGNVTKKEKVDEIIKVPPVTIDTSTGKLTPLPSAGGSAGGSAGG [r17_413_JUSTAS]	0.261 ± 0.051	0.284 ± 0.073	0.229 ± 0.021
SAGGSAGGSAGDLLKEALEEAKKAGIKTATITVEVDGKLYTLTVKLEPKPPPKEVKVEKKSAGGSAGGSAGG [r17_475_TrROS_Hall]	-0.977 ± 0.51	0.526 ± 0.38	0.814 ± 0.17
SAGGSAGGSAGDNYVMITHTIPFPPGEPLEIKIPPGAKIDDIDPERDPGNGTITVSIWFRSAGGSAGGSAGG [r11_701_TrROS]	0.491 ± 0.24	0.73 ± 0.25	0.879 ± 0.17
SAGGSAGGSAGDPVLTVTLLDDNHPVTLTYHPGEKTVTVSVYPLKSGKVLGTVTVPASELSAGGSAGGSAGG [r11_231_TrMRF]	-1.45 ± 0.71	-0.0506 ± 0.12	0.37 ± 0.13
SAGGSAGGSAGDWIKFEYTFKWNFFDPDGDLLMNMTVRVTIEIPIPPVPKPVKPSPNDDNSAGGSAGGSAGG [r17_325_TrROS]	3.52 ± 0.13	5.34 ± 0.22	5.4 ± 0.15
SAGGSAGGSAGEEKETLTLVLPLEDMSPEEIAKLLEAAGYKVTVEEKDGLLVVKIERKPPSAGGSAGGSAGG [r11_707_TrROS_Hall]	2.57 ± 0.08	2.77 ± 0.065	2.855 ± 0.017
SAGGSAGGSAGEFEIIIPPGVAEERPELLEEIRDRFKPLGLEVEVEYIPGEGYVRVKVKGSAGGSAGGSAGG [r11_357_TrMRF]	1.36 ± 0.061	1.55 ± 0.11	1.64 ± 0.036
SAGGSAGGSAGEFELLSVEYFPPIGRVRVAYRRGDLVLVVDFFNPENPEIRPVSLSDELGSAGGSAGGSAGG [r17_145_TrMRF]	2.64 ± 0.067	2.59 ± 0.18	2.48 ± 0.057
SAGGSAGGSAGEFEPVPVLTLPGLDDREVRVVLFKDPPLVLLEVEGAPYVLPAEELLRLASAGGSAGGSAGG [r11_370_TrMRF]	-0.19 ± 0.09	0.856 ± 0.12	1.26 ± 0.13
SAGGSAGGSAGEIENPSLLSQIVPRKVKVTTEIRKLPNGSYETVTTVTYGSTTTTTTSSGATSAGGSAGGSA [r18_335_JUSTAS]	0.163 ± 0.048	0.0269 ± 0.096	-0.256 ± 0.15
SAGGSAGGSAGEIVEVDGKLYIRVRTKDGEWKLIEMSADEIASLPAENVEEVEIVDPKDLSAGGSAGGSAGG [r11_779_TrROS_Hall]	2.6 ± 0.1	3.08 ± 0.11	3.16 ± 0.075
SAGGSAGGSAGELSLEEIKKLAPDETAVVKLPPSPETIVITVSTNPNGTLKIEIKRYPPGSAGGSAGGSAGG [r11_13_JUSTAS]	0.566 ± 0.037	0.674 ± 0.1	0.657 ± 0.03
SAGGSAGGSAGELTVTVTVLLEDGTAVKIEARFELDENGNLHLEVKVEVVKLPELSPEDLSAGGSAGGSAGG [r11_728_TrROS_Hall]	3.4 ± 0.43	2.74 ± 0.32	2.25 ± 0.2
SAGGSAGGSAGEPEIEIEVEERDGELVLRARVRDRETGEEYEVVVRVRPDGPIEITEIRPSAGGSAGGSAGG [r17_113_TrROS_Hall]	3.11 ± 0.13	2.72 ± 0.13	2.55 ± 0.13
SAGGSAGGSAGEPEYVRVRIRVRRRVRNKETGKWEEKEVELTLVFPSKEEALKALEELGLSAGGSAGGSAGG [r11_984_TrROS_Hall]	3.99 ± 0.083	4.02 ± 0.051	4.049 ± 0.037
SAGGSAGGSAGEPKLILVEVEGYPDPESNLVYVEFPNGDIATFAVDSAAPDQPVLVLVNPSAGGSAGGSAGG [r11_621_TrMRF]	0.378 ± 0.044	0.28 ± 0.045	-0.0185 ± 0.065
SAGGSAGGSAGEPVEVTPLSTETVPDSDTTVTYYKVTYPGGKEAIRTVYSDGTETTTPLPSAGGSAGGSAGG [r11_637_JUSTAS]	0.915 ± 0.12	0.969 ± 0.17	1.02 ± 0.1
SAGGSAGGSAGERLTADELRKLAEELGLPAEITVERKEDGTYTVTITVDGKTYKIEIKLDSAGGSAGGSAGG [r11_410_TrROS_Hall]	2.38 ± 0.096	3.16 ± 0.15	3.44 ± 0.1
SAGGSAGGSAGETVTLTLTVTVTRTYYDAETGEEVEQETETRTLTLTMSKEELERLLKELSAGGSAGGSAGG [r17_283_TrROS_Hall]	3.28 ± 0.13	4.44 ± 0.17	4.66 ± 0.11
SAGGSAGGSAGEVEFELTVKLTVTHPSGGKSEIEVPVKITLPVVDISKEILESNPEVVKKANSAGGSAGGSA [r18_114_TrMRF]	0.486 ± 0.11	-0.108 ± 0.3	-0.964 ± 0.33
SAGGSAGGSAGEVEIEITKVTENEDGSETLEMTIRDKDTGKTYKLTFNKDNGILTLEEEPSAGGSAGGSAGG [r11_991_TrROS_Hall]	1.93 ± 0.13	2.43 ± 0.2	3.05 ± 0.097
SAGGSAGGSAGEVTVPAVVPPDAVPEVVEAVERLGARAEVEWDPETGLYRVNITFDGEVGSAGGSAGGSAGG [r11_1043_TrMRF]	-0.00326 ± 0.067	0.604 ± 0.07	0.901 ± 0.06
SAGGSAGGSAGEVVLSPTDKTLTLTSFDPKTGVTYYTVFYPATGTTSTTSTGNLESLIAASAGGSAGGSAGG [r17_300_JUSTAS]	1.25 ± 0.024	0.929 ± 0.084	0.531 ± 0.13
